{"source": "patent US20260258084A1", "about": "“New Peptides as Selective IL-23 Receptor Antagonists” (Sanofi, priority 2022, published 2026)", "binders": {"B1": {"name": "Compound of SEQ ID NO: 39 (peptide)", "peptide": "[Ahx]E[Ava]WQT[Phe(4-OMe)][2Nal][Aib]DNN-NH2", "modifications": "lactam N-10; ester 2-6", "SMILES": "COc1ccc(C[C@@H]2NC(=O)[C@H]3NC(=O)[C@H](CCC(N)=O)NC(=O)[C@H](Cc4c[nH]c5ccccc45)NC(=O)CCCCNC(=O)[C@H](CCC(=O)O[C@@H]3C)NC(=O)CCCCCNC(=O)C[C@@H](C(=O)N[C@@H](CC(N)=O)C(=O)N[C@@H](CC(N)=O)C(N)=O)NC(=O)C(C)(C)NC(=O)[C@H](Cc3ccc4ccccc4c3)NC2=O)cc1"}, "B2": {"name": "Compound of SEQ ID NO: 43 (peptide)", "peptide": "[Ava]CNT[Trp(7-Me)]QC[Yde][2Nal][Aib]ESH-NH2", "modifications": "lactam N-11; disulfide 2-7", "SMILES": "Cc1cccc2c(C[C@@H]3NC(=O)[C@H]([C@@H](C)O)NC(=O)[C@H](CC(N)=O)NC(=O)[C@@H]4CSSC[C@H](NC(=O)[C@H](CCC(N)=O)NC3=O)C(=O)N[C@@H](Cc3ccc(OCCN(C)C)cc3)C(=O)N[C@@H](Cc3ccc5ccccc5c3)C(=O)NC(C)(C)C(=O)N[C@H](C(=O)N[C@@H](CO)C(=O)N[C@@H](Cc3c[nH]cn3)C(N)=O)CCC(=O)NCCCCC(=O)N4)c[nH]c12"}, "B3": {"name": "Compound of SEQ ID NO: 49 (peptide)", "peptide": "[Ava]CNT[Trp(7-Me)]K(Ac)C[Yde][2Nal][Thp]ENH[βAla]-NH2", "modifications": "lactam N-11; disulfide 2-7", "SMILES": "CC(=O)NCCCC[C@@H]1NC(=O)[C@H](Cc2c[nH]c3c(C)cccc23)NC(=O)[C@H]([C@@H](C)O)NC(=O)[C@H](CC(N)=O)NC(=O)[C@@H]2CSSC[C@H](NC1=O)C(=O)N[C@@H](Cc1ccc(OCCN(C)C)cc1)C(=O)N[C@@H](Cc1ccc3ccccc3c1)C(=O)NC1(CCOCC1)C(=O)N[C@H](C(=O)N[C@@H](CC(N)=O)C(=O)N[C@@H](Cc1c[nH]cn1)C(=O)NCCC(N)=O)CCC(=O)NCCCCC(=O)N2"}, "B4": {"name": "Compound of SEQ ID NO: 46 (peptide)", "peptide": "[Ava]CNT[Trp(7-Me)]K(Ac)C[Yde][2Nal][Thp]ENH[Sar]-NH2", "modifications": "lactam N-11; disulfide 2-7", "SMILES": "CC(=O)NCCCC[C@@H]1NC(=O)[C@H](Cc2c[nH]c3c(C)cccc23)NC(=O)[C@H]([C@@H](C)O)NC(=O)[C@H](CC(N)=O)NC(=O)[C@@H]2CSSC[C@H](NC1=O)C(=O)N[C@@H](Cc1ccc(OCCN(C)C)cc1)C(=O)N[C@@H](Cc1ccc3ccccc3c1)C(=O)NC1(CCOCC1)C(=O)N[C@H](C(=O)N[C@@H](CC(N)=O)C(=O)N[C@@H](Cc1c[nH]cn1)C(=O)N(C)CC(N)=O)CCC(=O)NCCCCC(=O)N2"}, "B5": {"name": "Compound of SEQ ID NO: 4 (peptide)", "peptide": "[Ava]CNTWQC[Phe(4-OMe)][2Nal][Aib]ENG-NH2", "modifications": "lactam N-11; disulfide 2-7", "SMILES": "COc1ccc(C[C@@H]2NC(=O)[C@@H]3CSSC[C@H](NC(=O)CCCCNC(=O)CC[C@@H](C(=O)N[C@@H](CC(N)=O)C(=O)NCC(N)=O)NC(=O)C(C)(C)NC(=O)[C@H](Cc4ccc5ccccc5c4)NC2=O)C(=O)N[C@@H](CC(N)=O)C(=O)N[C@@H]([C@@H](C)O)C(=O)N[C@@H](Cc2c[nH]c4ccccc24)C(=O)N[C@@H](CCC(N)=O)C(=O)N3)cc1"}, "B6": {"name": "Compound of SEQ ID NO: 44 (peptide)", "peptide": "[Nmapt]CKWQC[AEF][2Nal][αMeL]EA[dL]-NH2", "modifications": "lactam N-10; disulfide 2-6; not fully specified (residue 3); printed as Nmapt(§1)-C(§3)(@2)-K[aAc](@3)-W-Q-C(@2)-Yae-Nal-Mle-E(§1)-A-(D-Leu)-NH2; reading uncertain; also: Cys2 carboxyl joined to Lys3 epsilon-NH2 (isopeptide bond)"}, "B7": {"name": "Compound of SEQ ID NO: 40 (peptide)", "peptide": "[Nmha]CNTWQC[Yde][2Nal][αMeL]DN[dL]-NH2", "modifications": "lactam N-11; disulfide 2-7", "SMILES": "CC(C)C[C@@H](NC(=O)[C@H](CC(N)=O)NC(=O)[C@@H]1CC(=O)N(C)CCCCCC(=O)N[C@H]2CSSC[C@H](NC(=O)[C@H](CCC(N)=O)NC(=O)[C@H](Cc3c[nH]c4ccccc34)NC(=O)[C@H]([C@@H](C)O)NC(=O)[C@H](CC(N)=O)NC2=O)C(=O)N[C@@H](Cc2ccc(OCCN(C)C)cc2)C(=O)N[C@@H](Cc2ccc3ccccc3c2)C(=O)N[C@@](C)(CC(C)C)C(=O)N1)C(N)=O"}, "B8": {"name": "Compound of SEQ ID NO: 51 (peptide)", "peptide": "[Ava]CNT[Trp(7-Me)]K(Ac)C[Yde][2Nal][Thp]EN[3Pal]-NH2", "modifications": "lactam N-11; disulfide 2-7", "SMILES": "CC(=O)NCCCC[C@@H]1NC(=O)[C@H](Cc2c[nH]c3c(C)cccc23)NC(=O)[C@H]([C@@H](C)O)NC(=O)[C@H](CC(N)=O)NC(=O)[C@@H]2CSSC[C@H](NC1=O)C(=O)N[C@@H](Cc1ccc(OCCN(C)C)cc1)C(=O)N[C@@H](Cc1ccc3ccccc3c1)C(=O)NC1(CCOCC1)C(=O)N[C@H](C(=O)N[C@@H](CC(N)=O)C(=O)N[C@@H](Cc1cccnc1)C(N)=O)CCC(=O)NCCCCC(=O)N2"}, "B9": {"name": "Compound of SEQ ID NO: 5 (peptide)", "peptide": "XCNTWQCXXXENN", "modifications": "Apt(§1)-C(@2)-N-T-W-Q-C(@2)-Yae-Nal-Aib-E(§1)-N-N-NH2"}, "B10": {"name": "Compound of SEQ ID NO: 45 (peptide)", "peptide": "[Ava]CNT[Trp(7-Me)]K(Ac)C[Yde][2Nal][Aib]ENH[Sar]-NH2", "modifications": "lactam N-11; disulfide 2-7", "SMILES": "CC(=O)NCCCC[C@@H]1NC(=O)[C@H](Cc2c[nH]c3c(C)cccc23)NC(=O)[C@H]([C@@H](C)O)NC(=O)[C@H](CC(N)=O)NC(=O)[C@@H]2CSSC[C@H](NC1=O)C(=O)N[C@@H](Cc1ccc(OCCN(C)C)cc1)C(=O)N[C@@H](Cc1ccc3ccccc3c1)C(=O)NC(C)(C)C(=O)N[C@H](C(=O)N[C@@H](CC(N)=O)C(=O)N[C@@H](Cc1c[nH]cn1)C(=O)N(C)CC(N)=O)CCC(=O)NCCCCC(=O)N2"}, "B11": {"name": "Compound of SEQ ID NO: 48 (peptide)", "peptide": "[Ava]CNT[Trp(7-Me)]K(Ac)C[Yde][2Nal][Aib]ENH[βAla]-NH2", "modifications": "lactam N-11; disulfide 2-7", "SMILES": "CC(=O)NCCCC[C@@H]1NC(=O)[C@H](Cc2c[nH]c3c(C)cccc23)NC(=O)[C@H]([C@@H](C)O)NC(=O)[C@H](CC(N)=O)NC(=O)[C@@H]2CSSC[C@H](NC1=O)C(=O)N[C@@H](Cc1ccc(OCCN(C)C)cc1)C(=O)N[C@@H](Cc1ccc3ccccc3c1)C(=O)NC(C)(C)C(=O)N[C@H](C(=O)N[C@@H](CC(N)=O)C(=O)N[C@@H](Cc1c[nH]cn1)C(=O)NCCC(N)=O)CCC(=O)NCCCCC(=O)N2"}, "B12": {"name": "Compound of SEQ ID NO: 50 (peptide)", "peptide": "[Ava]CNT[Trp(7-Me)]K(Ac)C[Yde][2Nal][αMeL]ENH[βAla]-NH2", "modifications": "lactam N-11; disulfide 2-7", "SMILES": "CC(=O)NCCCC[C@@H]1NC(=O)[C@H](Cc2c[nH]c3c(C)cccc23)NC(=O)[C@H]([C@@H](C)O)NC(=O)[C@H](CC(N)=O)NC(=O)[C@@H]2CSSC[C@H](NC1=O)C(=O)N[C@@H](Cc1ccc(OCCN(C)C)cc1)C(=O)N[C@@H](Cc1ccc3ccccc3c1)C(=O)N[C@@](C)(CC(C)C)C(=O)N[C@H](C(=O)N[C@@H](CC(N)=O)C(=O)N[C@@H](Cc1c[nH]cn1)C(=O)NCCC(N)=O)CCC(=O)NCCCCC(=O)N2"}, "B13": {"name": "Compound of SEQ ID NO: 47 (peptide)", "peptide": "[Ava]CNT[Trp(7-Me)]K(Ac)C[Yde][2Nal][αMeL]ENH[Sar]-NH2", "modifications": "lactam N-11; disulfide 2-7", "SMILES": "CC(=O)NCCCC[C@@H]1NC(=O)[C@H](Cc2c[nH]c3c(C)cccc23)NC(=O)[C@H]([C@@H](C)O)NC(=O)[C@H](CC(N)=O)NC(=O)[C@@H]2CSSC[C@H](NC1=O)C(=O)N[C@@H](Cc1ccc(OCCN(C)C)cc1)C(=O)N[C@@H](Cc1ccc3ccccc3c1)C(=O)N[C@@](C)(CC(C)C)C(=O)N[C@H](C(=O)N[C@@H](CC(N)=O)C(=O)N[C@@H](Cc1c[nH]cn1)C(=O)N(C)CC(N)=O)CCC(=O)NCCCCC(=O)N2"}, "B14": {"name": "Compound of SEQ ID NO: 57 (peptide)", "peptide": "[Ava]CNTWQC[Yde][2Nal][Aib]ENNI-NH2", "modifications": "lactam N-11; disulfide 2-7", "SMILES": "CC[C@H](C)[C@H](NC(=O)[C@H](CC(N)=O)NC(=O)[C@H](CC(N)=O)NC(=O)[C@@H]1CCC(=O)NCCCCC(=O)N[C@H]2CSSC[C@H](NC(=O)[C@H](CCC(N)=O)NC(=O)[C@H](Cc3c[nH]c4ccccc34)NC(=O)[C@H]([C@@H](C)O)NC(=O)[C@H](CC(N)=O)NC2=O)C(=O)N[C@@H](Cc2ccc(OCCN(C)C)cc2)C(=O)N[C@@H](Cc2ccc3ccccc3c2)C(=O)NC(C)(C)C(=O)N1)C(N)=O", "notes": "§1 lactam bridge; @2 disulfide bridge"}}, "note": "Starred links: 1 amine or outer side, 2 acyl side, 3 side chain; linkers in the order of their positions; H or OH if unused. Positions of bridges follow the written chain, without caps; N, C: chain ends. Non-standard residues stand in square brackets, D forms with d. Yde = (2S)-2-amino-3-[4-[2-(dimethylamino)ethoxy]phenyl]propanoic acid, CN(C)CCOc1ccc(C[C@H](N[*:1])C(=O)[*:2])cc1; Nmha = 6-(methylamino)hexanoic acid, CN(CCCCCC(=O)[*:2])[*:1]; Phe(4-OMe) = COc1ccc(C[C@H](N[*:1])C(=O)[*:2])cc1; Trp(7-Me) = Cc1cccc2c(C[C@H](N)C(=O)O)c[nH]c12; 2Nal = N[C@@H](Cc1ccc2ccccc2c1)C(=O)O; AEF = NCCOc1ccc(C[C@H](N)C(=O)O)cc1; 3Pal = N[C@@H](Cc1cccnc1)C(=O)O; αMeL = CC(C)C[C@](C)(N)C(=O)O; Nmapt = not defined here; Thp = NC1(C(=O)O)CCOCC1; Aib = CC(C)(N)C(=O)O; Ahx = NCCCCCC(=O)O; Ava = NCCCCC(=O)O; βAla = NCCC(=O)O; Sar = CNCC(=O)O"}
{"molecular_target": "T1, IL-23 receptor on the surface of HEK-Blue IL-23 cells (UniProt Q5VWK5 24-629, limits assumed)", "T1 sequence (looked up)": "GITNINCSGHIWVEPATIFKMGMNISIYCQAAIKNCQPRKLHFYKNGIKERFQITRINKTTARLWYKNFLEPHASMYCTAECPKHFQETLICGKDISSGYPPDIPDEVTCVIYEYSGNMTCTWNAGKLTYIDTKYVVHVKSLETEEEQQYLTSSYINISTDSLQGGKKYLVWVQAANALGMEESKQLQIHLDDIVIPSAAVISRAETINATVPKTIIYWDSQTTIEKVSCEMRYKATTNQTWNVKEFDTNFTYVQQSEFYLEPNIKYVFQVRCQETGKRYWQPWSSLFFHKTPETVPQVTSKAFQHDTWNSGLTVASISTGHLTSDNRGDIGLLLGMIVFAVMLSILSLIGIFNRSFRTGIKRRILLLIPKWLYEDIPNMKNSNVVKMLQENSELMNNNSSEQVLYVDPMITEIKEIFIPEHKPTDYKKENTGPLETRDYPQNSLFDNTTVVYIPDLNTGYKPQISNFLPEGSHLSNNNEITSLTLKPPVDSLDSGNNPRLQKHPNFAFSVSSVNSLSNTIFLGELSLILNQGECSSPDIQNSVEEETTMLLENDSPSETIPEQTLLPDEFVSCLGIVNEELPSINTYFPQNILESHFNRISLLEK", "experiment": "cell-based or functional assay", "units": {"pSTAT3 (nM)": "nM"}}
{"binder": "B1", "pSTAT3 (nM)": 26.4}
{"binder": "B2", "pSTAT3 (nM)": 1.31}
{"binder": "B3", "pSTAT3 (nM)": 1.79}
{"binder": "B4", "pSTAT3 (nM)": 0.84}
{"binder": "B5", "pSTAT3 (nM)": 34.8}
{"binder": "B6", "pSTAT3 (nM)": 42.5}
{"binder": "B7", "pSTAT3 (nM)": 50.8}
{"binder": "B8", "pSTAT3 (nM)": 0.05}
{"binder": "B9", "pSTAT3 (nM)": 9.66}
{"binder": "B10", "pSTAT3 (nM)": 0.67}
{"binder": "B11", "pSTAT3 (nM)": 0.6}
{"binder": "B12", "pSTAT3 (nM)": 0.98}
{"binder": "B13", "pSTAT3 (nM)": 0.57}
{"binder": "B14", "pSTAT3 (nM)": 5.5}
